Here are results for two substances from patent publication US20230331796A1.

The experiment addresses single chain C1q fusion polypeptide according to formula I (TAG-X1-C1qA-X2-C1qB-X3-C1qC-X4) (human). The experiment can be described thus: C1q affinity chromatography, immobilised fusion polypeptide, linear NaCl gradient in 20 mM HEPES pH 7.4.

Sequence of single chain C1q fusion polypeptide according to formula I (TAG-X1-C1qA-X2-C1qB-X3-C1qC-X4) (human) (main, as listed by the source): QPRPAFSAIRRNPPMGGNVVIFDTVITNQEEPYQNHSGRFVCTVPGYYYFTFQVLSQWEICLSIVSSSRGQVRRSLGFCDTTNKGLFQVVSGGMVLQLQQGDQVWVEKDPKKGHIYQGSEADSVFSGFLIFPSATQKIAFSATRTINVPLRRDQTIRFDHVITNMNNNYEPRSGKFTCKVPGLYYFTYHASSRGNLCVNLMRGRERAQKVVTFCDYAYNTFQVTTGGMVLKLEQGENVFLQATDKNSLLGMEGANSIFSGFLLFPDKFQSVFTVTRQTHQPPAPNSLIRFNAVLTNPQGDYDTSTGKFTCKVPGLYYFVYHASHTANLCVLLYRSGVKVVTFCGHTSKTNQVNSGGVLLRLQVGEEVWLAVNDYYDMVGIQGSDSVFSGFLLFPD

Substance Briakinumab (antibody) registered a retention time of 30.7 min.

In the case of Ustekinumab (antibody), the retention time turned out to be 39.1 min.
